From publication doi:10.1101/2024.03.12.584494
Each block holds one substance with its values, some of them ahead of it.

Assays:
Assay in all cases: co-IP
[1] = molecular target: mGFP-PICK1 5K-E (mouse) (UniProt Q62083)
[2] = molecular target: mCherry-KIBRA WT (mouse) (UniProt Q5SXA9)
[3] = molecular target: mGFP-KIBRA ΔC2 (mouse) (UniProt Q5SXA9)
[4] = molecular target: mCherry-PICK1 WT (mouse) (UniProt Q62083)
[5] = molecular target: mGFP-KIBRA ΔCt (mouse) (UniProt Q5SXA9)
[6] = molecular target: mGFP-KIBRA ΔCCL (mouse) (UniProt Q5SXA9)
[7] = molecular target: mGFP-KIBRA ΔαBR (mouse) (UniProt Q5SXA9)

Sequence of mCherry-PICK1 WT (mouse) (Q62083 whole entry): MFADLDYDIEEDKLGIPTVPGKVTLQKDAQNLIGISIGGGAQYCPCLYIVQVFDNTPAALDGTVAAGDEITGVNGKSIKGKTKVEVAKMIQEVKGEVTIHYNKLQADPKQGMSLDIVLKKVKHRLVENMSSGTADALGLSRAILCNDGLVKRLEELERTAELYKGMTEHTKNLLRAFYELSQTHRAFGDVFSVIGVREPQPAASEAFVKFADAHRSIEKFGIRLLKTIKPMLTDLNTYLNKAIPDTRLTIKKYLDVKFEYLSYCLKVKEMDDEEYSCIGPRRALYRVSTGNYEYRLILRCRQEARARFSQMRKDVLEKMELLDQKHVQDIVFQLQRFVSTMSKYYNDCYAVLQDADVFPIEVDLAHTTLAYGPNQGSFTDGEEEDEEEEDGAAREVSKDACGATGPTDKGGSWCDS
Sequence of mGFP-PICK1 5K-E (mouse) (Q62083 whole entry): as above
Sequence of mCherry-KIBRA WT (mouse) (Q5SXA9 whole entry): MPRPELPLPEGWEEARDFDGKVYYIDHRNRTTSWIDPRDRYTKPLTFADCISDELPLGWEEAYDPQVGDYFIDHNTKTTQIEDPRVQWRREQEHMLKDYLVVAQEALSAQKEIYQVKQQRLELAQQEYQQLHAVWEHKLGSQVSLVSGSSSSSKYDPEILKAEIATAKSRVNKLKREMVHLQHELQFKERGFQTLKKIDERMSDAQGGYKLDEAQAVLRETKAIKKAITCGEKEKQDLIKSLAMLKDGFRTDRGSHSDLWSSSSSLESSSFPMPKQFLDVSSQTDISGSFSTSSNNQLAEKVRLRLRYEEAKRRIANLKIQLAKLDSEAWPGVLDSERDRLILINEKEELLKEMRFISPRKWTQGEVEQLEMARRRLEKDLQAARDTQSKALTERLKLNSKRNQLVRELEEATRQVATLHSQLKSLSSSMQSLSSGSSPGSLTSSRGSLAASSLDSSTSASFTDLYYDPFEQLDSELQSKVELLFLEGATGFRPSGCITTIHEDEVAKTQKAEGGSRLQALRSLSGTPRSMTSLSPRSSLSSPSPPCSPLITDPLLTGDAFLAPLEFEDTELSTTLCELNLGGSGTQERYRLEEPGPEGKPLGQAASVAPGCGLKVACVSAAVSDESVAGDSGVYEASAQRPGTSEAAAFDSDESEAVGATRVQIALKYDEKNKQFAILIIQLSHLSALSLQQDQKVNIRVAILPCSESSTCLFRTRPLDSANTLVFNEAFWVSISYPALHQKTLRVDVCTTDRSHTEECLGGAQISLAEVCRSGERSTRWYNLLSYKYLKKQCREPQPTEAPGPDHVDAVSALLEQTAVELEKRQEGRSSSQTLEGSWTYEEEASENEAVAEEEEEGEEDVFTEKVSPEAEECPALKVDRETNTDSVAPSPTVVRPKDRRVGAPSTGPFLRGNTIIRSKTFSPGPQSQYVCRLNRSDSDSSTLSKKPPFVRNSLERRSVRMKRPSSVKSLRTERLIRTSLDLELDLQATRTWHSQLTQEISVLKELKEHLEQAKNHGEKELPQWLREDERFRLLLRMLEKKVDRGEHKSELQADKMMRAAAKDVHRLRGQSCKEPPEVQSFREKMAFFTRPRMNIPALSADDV
Sequence of mGFP-KIBRA ΔCt (Q5SXA9 whole entry, stated change not applied): as the sequence (Q5SXA9 whole entry) above
Sequence of mGFP-KIBRA ΔCCL (Q5SXA9 whole entry, stated change not applied): as the sequence (Q5SXA9 whole entry) above
Sequence of mGFP-KIBRA ΔC2 (Q5SXA9 whole entry, stated change not applied): as the sequence (Q5SXA9 whole entry) above
Sequence of mGFP-KIBRA ΔαBR (Q5SXA9 whole entry, stated change not applied): as the sequence (Q5SXA9 whole entry) above
Sequence of mGFP-PICK1 BAR (domain or fragment) (Q62083 whole entry, the tested form may be a part): as the sequence (Q62083 whole entry) above
Sequence of mGFP-PICK1 KD-AA (Q62083 whole entry): as above
Sequence of Myc-GluA2 (P19491 22-883): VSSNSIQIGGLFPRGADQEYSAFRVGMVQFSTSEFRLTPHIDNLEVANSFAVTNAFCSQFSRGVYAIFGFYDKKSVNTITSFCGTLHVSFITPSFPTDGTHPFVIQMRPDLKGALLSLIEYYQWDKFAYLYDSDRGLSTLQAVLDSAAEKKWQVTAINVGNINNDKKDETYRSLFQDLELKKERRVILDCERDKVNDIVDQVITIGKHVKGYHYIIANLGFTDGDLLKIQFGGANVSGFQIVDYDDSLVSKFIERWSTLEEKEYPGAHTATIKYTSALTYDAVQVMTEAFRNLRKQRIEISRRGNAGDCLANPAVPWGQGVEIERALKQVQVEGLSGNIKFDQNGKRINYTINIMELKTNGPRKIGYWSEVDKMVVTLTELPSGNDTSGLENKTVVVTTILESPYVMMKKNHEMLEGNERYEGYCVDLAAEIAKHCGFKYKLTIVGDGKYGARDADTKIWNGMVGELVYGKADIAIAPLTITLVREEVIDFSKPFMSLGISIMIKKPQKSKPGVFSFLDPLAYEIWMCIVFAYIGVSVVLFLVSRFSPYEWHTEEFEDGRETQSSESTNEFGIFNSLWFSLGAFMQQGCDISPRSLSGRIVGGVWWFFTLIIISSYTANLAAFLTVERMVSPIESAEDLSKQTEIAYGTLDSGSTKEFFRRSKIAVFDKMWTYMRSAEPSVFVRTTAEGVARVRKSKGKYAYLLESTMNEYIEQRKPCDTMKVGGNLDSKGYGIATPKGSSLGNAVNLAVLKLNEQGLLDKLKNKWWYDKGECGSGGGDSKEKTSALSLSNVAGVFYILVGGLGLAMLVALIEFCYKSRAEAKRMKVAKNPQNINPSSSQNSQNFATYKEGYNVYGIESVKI
Sequence of mGFP-KIBRA ΔWW (Q5SXA9 whole entry, stated change not applied): as the sequence (Q5SXA9 whole entry) above
Sequence of mCherry-KIBRA WT (Q5SXA9 whole entry): as above

Substance: mGFP-KIBRA ΔC2 (from UniProt Q5SXA9 1-1104) (natural protein)
co-precipitated mGFP-KIBRA normalized to WT sample from the same blot [3]: 1.36
co-precipitated KIBRA normalized to WT sample from the same blot [4]: 1.08

Substance: mGFP-KIBRA ΔCt (from UniProt Q5SXA9 1-1104) (natural protein)
co-precipitated mGFP-KIBRA normalized to WT sample from the same blot [5]: 1
co-precipitated KIBRA normalized to WT sample from the same blot [4]: 5.79

Substance: mGFP-PICK1 KD-AA (from UniProt Q62083 1-416) (natural protein)
PICK1 pull down normalized to input and same-gel WT PICK1 [2]: 0.8

Substance: mGFP-KIBRA ΔWW (from UniProt Q5SXA9 1-1104) (natural protein)
co-precipitated KIBRA normalized to WT sample from the same blot [4]: 1.87

Further lines, results first:

GluA2 signal with PICK1 5K-E normalized to +PICK1 WT [1]: 0.27
Substance: Myc-GluA2 (from UniProt P19491 22-883) (receptor)

PICK1 pull down normalized to input and same-gel WT PICK1 [2]: 2.06
Substance: mGFP-PICK1 BAR (domain or fragment)

KIBRA signal with PICK1 5K-E normalized to +PICK1 WT [1]: 0.63
Substance: mCherry-KIBRA WT (from UniProt Q5SXA9 1-1104) (natural protein)

co-precipitated mGFP-KIBRA normalized to WT sample from the same blot [6]: 1.6
co-precipitated KIBRA normalized to WT sample from the same blot [4]: 1.53
Substance: mGFP-KIBRA ΔCCL (from UniProt Q5SXA9 1-1104) (natural protein)

co-precipitated mGFP-KIBRA normalized to WT sample from the same blot [7]: 1.55
co-precipitated KIBRA normalized to WT sample from the same blot [4]: 1.84
Substance: mGFP-KIBRA ΔαBR (from UniProt Q5SXA9 1-1104) (natural protein)
